Substitutions are numbered along the chain they refer to. Names and notes keep the numbering of the source. No end group written: not given here.

The text below walks through data of article PMC10716038, “Talin and kindlin use integrin tail allostery and direct binding to activate integrins” (Nature Structural & Molecular Biology, 2023).

For assay [1], the target named is integrin β1A cytoplasmic tail (β1-CT), recombinant (UniProt P05556). As to the kind of experiment: NMR titration; isotope-labelled β1-CT observed; TLN1-F3 and ΔKIND2 (wild type or K402E / Y13A) added together, ternary complex; 20 mM Tris, 200 mM NaCl, 1 mM DTT, pH 7.5, 298 K.
For assay [2], the target named is ATTO 488-labelled β1-CT (488–β1-CT) (UniProt P05556). Description: MST; ATTO 488-labelled β-CT peptide (50–200 nM) held constant, one unlabelled protein titrated; 20 mM Tris pH 7.5, 200 mM NaCl, 1 mM TCEP, 0.05% Tween-20; apparent affinities (near-saturation only).
The target in assay [3] is T1, talin-1 head domain (THD1) (UniProt P26039 1-405).
T1 chain: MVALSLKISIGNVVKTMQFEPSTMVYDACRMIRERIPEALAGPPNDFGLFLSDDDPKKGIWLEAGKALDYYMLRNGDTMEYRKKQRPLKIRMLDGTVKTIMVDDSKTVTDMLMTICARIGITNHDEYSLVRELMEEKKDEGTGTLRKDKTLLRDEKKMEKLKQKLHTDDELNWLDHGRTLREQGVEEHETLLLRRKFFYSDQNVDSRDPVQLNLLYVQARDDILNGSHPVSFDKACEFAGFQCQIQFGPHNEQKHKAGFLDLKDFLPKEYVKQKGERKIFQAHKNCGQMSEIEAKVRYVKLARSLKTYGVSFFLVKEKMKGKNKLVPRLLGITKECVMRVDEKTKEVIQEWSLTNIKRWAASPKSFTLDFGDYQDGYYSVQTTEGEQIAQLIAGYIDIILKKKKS
Description: MST.

The next assay deals with T2, kindlin-2 (KIND2) (UniProt Q8CIB5 1-680).
T2 chain: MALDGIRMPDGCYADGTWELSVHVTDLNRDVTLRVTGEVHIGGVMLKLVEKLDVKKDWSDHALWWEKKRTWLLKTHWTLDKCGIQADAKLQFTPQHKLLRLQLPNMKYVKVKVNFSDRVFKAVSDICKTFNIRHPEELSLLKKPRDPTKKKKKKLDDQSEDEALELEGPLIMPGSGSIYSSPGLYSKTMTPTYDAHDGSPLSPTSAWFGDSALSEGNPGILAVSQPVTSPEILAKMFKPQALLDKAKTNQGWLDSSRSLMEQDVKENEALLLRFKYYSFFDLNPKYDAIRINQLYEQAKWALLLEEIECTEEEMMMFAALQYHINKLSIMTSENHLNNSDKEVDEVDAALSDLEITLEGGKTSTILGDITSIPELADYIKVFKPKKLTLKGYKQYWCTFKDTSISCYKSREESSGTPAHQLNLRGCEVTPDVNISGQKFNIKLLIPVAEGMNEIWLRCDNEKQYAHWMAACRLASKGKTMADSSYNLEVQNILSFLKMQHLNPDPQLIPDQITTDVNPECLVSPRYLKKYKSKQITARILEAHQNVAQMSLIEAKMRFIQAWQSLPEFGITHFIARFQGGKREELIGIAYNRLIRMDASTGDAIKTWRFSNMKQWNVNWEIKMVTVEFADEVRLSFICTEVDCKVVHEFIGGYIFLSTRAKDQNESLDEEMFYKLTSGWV
As to the kind of experiment: MST.

Assay [4] concerns the target T3, α5-TM lacking the cytoplasmic domain (tailless α5-TM) in nanodiscs (UniProt P11688 993-1025, biotin (biotin-maleimide)).
T3 chain: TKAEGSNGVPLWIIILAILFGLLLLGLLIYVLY
Description: FACS; 10% PIP3 nanodiscs. On the technique in general: A flow cytometer gives signals particle by particle.

Assay [5] addresses T4, β3 transmembrane and cytoplasmic tail polypeptide (β3-TM–CT) in nanodiscs (UniProt O54890 715-787, biotin (biotin-maleimide)).
T4 chain: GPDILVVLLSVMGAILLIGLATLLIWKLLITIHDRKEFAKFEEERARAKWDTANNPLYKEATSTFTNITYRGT
Description: FACS; 10% PIP3 nanodiscs.

In assay [6] the target is T3, α5-TM lacking the cytoplasmic domain …. Description: FACS; 10% PIP2 nanodiscs.
Assay [7] concerns the target T5, β1 transmembrane and cytoplasmic tail polypeptide (β1-TM–CT) in nanodiscs (UniProt P05556 726-798, biotin (biotin-maleimide)).
T5 chain: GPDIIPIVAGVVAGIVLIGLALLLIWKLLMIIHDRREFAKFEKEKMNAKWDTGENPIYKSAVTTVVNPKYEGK
Description: FACS; 10% PIP2 nanodiscs.

The target in assay [8] is T4, β3 transmembrane and cytoplasmic tail …. As to the kind of experiment: FACS; 10% PIP2 nanodiscs.
Assay [9] has as its target T6, ATTO 488-labelled β3-CT (488–β3-CT) (UniProt O54890 741-787, ATTO 488 at the N terminus).
T6 construct: integrin β3 cytoplasmic tail; source: synthetic peptide (MPIB Core Facility)
T6 peptide (looked up): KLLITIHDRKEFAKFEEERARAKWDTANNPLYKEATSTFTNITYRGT
As to the kind of experiment: MST; as a7, with a second unlabelled protein present at near-saturating concentration (named in the quantity or in the printed words); apparent constants (Kd,app*). As to conditions: both partners purified.

Assay [10] deals with T5, β1 transmembrane and cytoplasmic tail …. As to the kind of experiment: FACS; 10% PIP3 nanodiscs.

For the molecule “KIND2 lacking the flexible loop in F1 and the PH domain (ΔKIND2) (domain or fragment)”, the decrease of the signal intensities of the membrane-proximal α-helix of β1-CT (H758–K770), 1:0.8 against 1:0.2, with TLN1-F3 added together in assay [1] is 50%.

Take ΔKIND2^Y13A (domain or fragment): in assay [1], the decrease of the signal intensities of the membrane-proximal α-helix of β1-CT (H758–K770), 1:0.8 against 1:0.2, with TLN1-F3 K402E added together came to 10% and the decrease of the signal intensities of the membrane-proximal α-helix of β1-CT (H758–K770), 1:0.8 against 1:0.2, with TLN1-F3 added together worked out at 30%.

Take TLN1-F3–ΔKIND2^Y13A fusion protein: in [2], the Kd of the kindlin contribution (fit of concentrations up to 5 µM) was determined as 2.9 µM and the Kd of the talin contribution (fit of concentrations above 5 µM) came to 16 µM.

Turning to {ATTO 488}-KLLITIHDRKEFAKFEEERARAKWDTANNPLAKEATSTFTNITYRGT [ATTO 488-labelled β3-CT^Y772A], the Kd was 511 µM in assay [3] and 15.5 µM in the assay with kindlin-2 (KIND2).

B1: KIND2^Y13A (natural protein)
chain: T2 chain with Y13A
With B1, the IC50 in assay [4] came to 0.128 µM; in assay [5] it was 0.173 µM; in assay [6], 0.162 µM; in assay [7] it was 0.098 µM; in assay [8], 0.219 µM.

B2: kindlin-2 (KIND2) (natural protein, UniProt Q8CIB5 1-680, looked up)
chain: T2 chain
notes: kindlin-2 (KIND2) without the deletions of ΔKIND2; In FC-RDA a copy labelled with Alexa 647 (647–KIND2) was the reporter; also called 647–KIND2; source: E. coli Rosetta, purified (IMAC, SEC); not shown: His10, N-terminal, cleaved; SUMO, N-terminal, cleaved
For B2, in [9], the “apparent Kd (Kd,app*) in the presence of THD1” value was determined as 54 µM, the “apparent Kd (Kd,app*) in the presence of THD1 K402E” value came to 16 µM, the “apparent Kd (Kd,app*) in the presence of THD2” value stood at 27 µM and the “apparent Kd (Kd,app*) in the presence of TLN1-F3” value amounted to 120 µM. Moreover, the “apparent Kd (Kd,app*) in the presence of TLN2-F3” value in [9] was determined as 47 µM.

B3: KIND2^Y13A (natural protein, UniProt Q8CIB5 1-680, looked up)
chain: T2 chain with Y13A
notes: kindlin-2 (KIND2) with Y13A; In FC-RDA a copy labelled with Alexa 647 was the reporter; also called 647–KIND2^Y13A; source: E. coli Rosetta, purified (IMAC, SEC); not shown: His10, N-terminal, cleaved; SUMO, N-terminal, cleaved
With B3, the “apparent Kd (Kd,app*) in the presence of THD1” value in [9] was determined as 21 µM.

B4: THD1^K402E (domain or fragment)
chain: T1 chain with K402E
Take B4: the IC50 in assay [4] amounted to 0.211 µM; in assay [10], 0.054 µM; in [5] it was 0.051 µM; in assay [6], 0.246 µM; in [7], 0.131 µM; in assay [8], 0.07 µM.

B5: talin-1 head domain (THD1) (domain or fragment, UniProt P26039 1-405, looked up)
chain: T1 chain
notes: talin-1 (TLN1) head domain (F0-F3), residues 1-405; In FC-RDA a copy labelled with ATTO 565 (565–THD1) was the reporter; also called 565–THD1; source: E. coli (DE3) Rosetta 2, purified (IMAC, SEC); not shown: His10, N-terminal, cleaved; SUMO, N-terminal, cleaved
As to B5, in assay [9], the “apparent Kd (Kd,app*) in the presence of KIND2” value stood at 102 µM and the “apparent Kd (Kd,app*) in the presence of KIND2 Y13A” value stood at 218 µM.

B6: THD1^K402E (domain or fragment, UniProt P26039 1-405, looked up)
chain: T1 chain with K402E
notes: talin-1 (TLN1) head domain, residues 1-405, with K402E; In FC-RDA a copy labelled with ATTO 565 was the reporter; also called 565–THD1^K402E; source: E. coli (DE3) Rosetta 2, purified (IMAC, SEC); not shown: His10, N-terminal, cleaved; SUMO, N-terminal, cleaved
B6: in [9], the “apparent Kd (Kd,app*) in the presence of KIND2” value stood at 76 µM.

A word on the Kd: it is the constant that tells how readily two partners part at equilibrium. By IC50 is commonly meant the midpoint of a concentration-inhibition curve. A low value points to higher potency.
